Laboratory results from the nanobody polyreactivity screen of Harvey et al. (2022).

Assay: yeast display, Sf9 membrane polyspecificity reagent, FACS + sequencing; frameworks hold sequencing errors
How it was run: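 Galactose-induced (36–48 hours) yeast carrying a synthetic nanobody display library were exposed to 10% biotinylated, detergent-solubilized Sf9 membrane reagent at 4 °C for 1 hour. FACS followed streptavidin microbead enrichment, using low and high (top ~1%) gates for expression (anti-HA) and reagent binding (streptavidin). Colony PCR, MiSeq 2 × 250 sequencing and CDR-length filtering followed. Labels for polyreactivity reflect the gate of origin.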

Row | Sequence | polyreactivity (PSR sort gate)
1 | QVQLVESWGGVVQAGVSLRLSCAASGINFYSYAMGWYRQAPGKERELVAAISNNGGSTYADSVKGRFTISRDNAKNTVYLQMNSLKPEDTAVYYCAADPTGGVGFDGYYWGQGTQVSVSS | low polyreactivity
2 | QVQLVESGGGLVQAGGSLRLSCAASGSIFARYAMGWYRQAPGKEREFVAAITGRGGTTNYADSVKGRFTISRDNAKNTVYLQMNSLKPEDTAVYYCNARDRYREHDYWGQGTQVTVSS | high polyreactivity
3 | QVQLVESGGGLVQAGGSLRLSCAASGRTFGRYAMGWYRQAPGKERELVAAISWSGGSTYYADSVKGRFTISRDNAKNSVYLQMNSLKPEDTAVYYCAAYEHVYVYDYWGQGTQVTVSS | low polyreactivity
4 | QVQLVESGGGLVQAGGSLLLRCAASGSIFPWNTMGWNRQAPGKERELVARISTSGASTYYADSVKGRFTISRDNAKNTVYLQMNSRKPEDTAVYYGAARDWSHRPRGYDYWGQGTQVTVSS | high polyreactivity
5 | QVQLVESGGGLVQAGGSLRLSCAASGSIFLYNAMGWYRQAPGKERELVAAISASGGSTYYADSVKGRFTISRDNAKNTVYLQMNSLKPEDTAVYYWAAQYSDYDGFTWPLPPRYDYWGQGTQVTVSS | high polyreactivity
6 | QVQLVESGGGLVQAGGSLRLSCAASGFIFGWNAMGWYRQAPGKERELVAGISRGGRTYYADSVKGRFTISRDNAKNTVYLQMNSLKPEDTAVYYCNKRLYSSSAVDAYGYWGQGTQVTVSS | high polyreactivity
7 | QVQLVESGGGLVQAGGSLRLSCAASGRTSWVNAMGWYRQAPGKERELVAAIVSGGTTKYADSVKGRFTISRDNAKNTVYLQMNSLKPEDTAVYYCAVRYSKRSVYTYGFNYWGQGTQVTVSS | high polyreactivity
8 | QVQLVESGGGLVQAGGNLRLSCAASGFIFTRYAMGWYRQAPGKERELVAAISTSGDRTYYADSVKGRFTISRDNAKNTVYLQMNSLKPEDTAVYYCATSKSYSSKLYDYWGQGTQVTVSS | high polyreactivity
9 | QVQLVESGGGLVQAGVILRLSCAASGSTFSLYAMGWYRKPPGKERELVAAISWSDGSTYYADSVKGRFTISRDNAKITVYLQMNSLKAEDTAVSYFANASSFAYYRFGYWGQVTQVTVSS | low polyreactivity
10 | QVQLVESVGGLVQAGGSLPLSCAASGLTFPSYAMGWYRQAPGKERELVAAISASGSSTYYADSVKGRFTISRDNAKNTVYLQMNSLKPEDTAVYYCNARKPATVSRYGYWGQGTQVTVSS | high polyreactivity
11 | QVQLVESGGGLGQAGGSLRLSCPASGITFVYYAMGWYRQSPGKERELVATITKSGVSTYYADSVKGRFTISRDNAKYTVYLQMNSLKPEDTAVYYCAKDVSYRFYWTYDYWGQGTQVTVSS | low polyreactivity
12 | QVQLVESGGGLVQAGGSLRLICAASVSIFTKYAMGWYRQAPGKERELVADITRSGGSTYYADSVKGRFTISRDNAKNTVYLQMNSLKPEDTAVYYCAVDPVRYPYSYDYWGQGTQVTVSS | high polyreactivity
13 | QVQLVESAGGLVQAGGSLRLSCAASGRTIRWYTMGWYRQAPGKERELVAGISSSGGSTYYADSVKGRFTISRDTAKNTVYLQMNSLKPEDTAVYYCNVVTWYYVFRPWEYDYWGQGTQVTVSS | low polyreactivity
14 | QVQLVESGGGLVQAGGSRRLSCAASGFIFSGYAMGWYRQERGKERELVAAITRSGSRTYYADSVKGRFTISRDNAKNTVYLQMNSLKPEDTAVYYCAKDKPKYGISTIDYWGQGTLVTVSS | high polyreactivity
15 | QVQLVESGVGLVQAGGSLRLSCAASGGIFVPYAMGWYRQAPGKEREWVARIRSGGTTNYADSVKGRFTISRDNAKNTVYLQRNSLKPEDTAVYYCAVAAGIPQRRDYYWGQGTQVTVSS | high polyreactivity
16 | QVQLVESGGGLVQAGGSLRLSCAASGFTFVRYAMGWYRQAPGKEREFVAGITRSGGSTYYADSVKGRFTISRDNAKNTVYLQMNSLKPEDTAVYYCNRAYYSYHDQPYEYWGQGTQVSVSS | high polyreactivity

Row | Sequence | polyreactivity (PSR sort gate)
17 | QVQLVESGGGLVQAGGSLRLSCAASGFIYKFYAMGWYRQEPGKVRELVAAISDSGGSTYYADSVKGRFTISRDNAKNTVYLQMNSLKPEDTAVYYCNADWSWNNYYDFDYWGLGTQVTVSS | low polyreactivity
18 | QVQLVESGGGLVQAGGSLRLSCAASGSIFGSYAMGWYRQAPGKERELVAAISSSGGSTYYADSVKGRFTISRVNAKNTVYFQMNSLKPEDTAVYYCNKYVRYGDGYWGQGTQVTVSS | high polyreactivity
19 | QVQLVESGGGLVQAGGSLRLSCAASGRMGWYRQAPGKERELVAGITSSGRTYYADSVKGRFTISRDNAKNTVYLQMNSLKPEDTAVYYCATYGYWGQGTQVTVSS | high polyreactivity
20 | QVQLVESGGGLVQAGGSLRLSCAASGSILRLYVMGWYRQAPGKERELVADISDRGGSTYYADSVKGRFTISRDNAKNTVYLQMNSLKPEDTAVYYCAAEWGQSGGGGYYYWGQGTQVTVSS | low polyreactivity
21 | QVQLQESGGGLVQAGGTLRLSCAASGTISFTRDMGWYRQAPGKEREFVASIDRGASTYYADSVKGRFTISRDNAKNTVYLQMNSLKPEDNAVYYRAVIAPFYSSFAYWGQGTQVTVSS | high polyreactivity
22 | QVQLVESGGGLVQAGGSLRLSCAASGIIFVKYTMGWYRQAPGKERELVAAISRSGGSTYYADSVKGRFTISRDNAKNTVYLQMNSLKPEDTAVYYCNAVSRKVYPGPMDYWGQGTQVTVSS | high polyreactivity
23 | QVQLVESGGGLVQAGGSLRLSCAASGSTFRFYAMGWYRQAPGKERELVAAISSGGSTYYADSVKGRFTISRDNAKNTVYLQMNSLKPEDTAVYYCNARLYYSTFRYYYWGQGTQVTVSS | high polyreactivity
24 | QVQLVESGGGLVQAGGSLRLSCAASGFNFRANGMGWYRQAPGKERELVATITSGGTTNYADSVKGRFTITRDNAKNTVYLQMNSLKPEDTAVYYCAKRFVQAYFRLYDYWGQGTQVNVSS | low polyreactivity
25 | QVQLVESGGGLVQAGGSLRLSCAASGITFVSNVMGWYRQAPGKEREFVAAITGRGDSTYADSVKGRFTISRDNAKNTVYLQMNSLKPEDTAFYYCNRESDIYSFVAMNYWGQGTQVTVSS | low polyreactivity
26 | QVQLVESGGGLVQAGGSLRLSCAASGRIFFKNAMGWYRQAPGKDRELVAAISWSGGRTYYADSVKGRFTISRDNAKNTVYLQMNSLKPEDSAVYYCATRYHVGKYLYGYWGQGTQVTVSS | high polyreactivity
27 | QVQLVESGGGLVQAGGSLRLSCAASGSTFVPNDMGWYRQAPGKERELVAGISSVGGTDADSVKGRFTISRDNAKNTVYLQMNSLKPEDTAVYYCNALHAYYVLTPYDYWGQGTQVTVSS | low polyreactivity
28 | QVQLVESGGGLDQAGGSLRISCAASGRTFRNYAMGSYRQAPGKERELVPAISFSGGRTYYADSVKGRFTISRDNAKNTVYLQMNSLKPEDTAVYYCAKVSYYRGDGDEDYGYWGQGTQVPVSS | high polyreactivity
29 | QVQLVESGGGLVQAGGSLRLSCAASGSIFFPYAMGWYRQAPGKERELVAASTRSGGRTYYADSVKGRFTISRDNAKNTVYLQMNSLKPEDTAVYYCAAGPWYKFYDWRPWFSYDYWGQGTQVTVSS | low polyreactivity
30 | QVQLVESGGGLVQAGGSLRLSCAASGSTFGTYAMGWYRQAPGKERELVAAITSGDNTYYADSVKGRFTISRDNAKNTVYLPMNSLKPEDTAVYYCAKDYNRYYWPWVIRGYDYWGQGTHVTVSS | low polyreactivity
31 | QVQLVESGGGLVQAGGSLRLTCAASARIFGYYVMGWSRQAPGKETELVAAIRSSADSTYYADSVKGRFTISRDNAKNTVYLQMNSLKPEDTAVYYCAAQSPAYYTKSYWGQGTQVTVSS | low polyreactivity
32 | QVQLVESGGGLVQAGGCLRISFAASGLTFVWYGMGWYRPATGKERELVAAITSVRTTYYADSVKGRFTISRDNAKNSVYLQMTSLKAEDSGFYYCAAQWAGYGDLPWPYSVIVEFYYWGQGSQVTVSS | low polyreactivity
